One data set concerns biotinyl-Leu-oxazolone. Description: self-aminoacylation, catalytic enhancement (BLO) (fold over background); higher = more active; k-Seq, kA / k0A0; sequences stand for … in GGGAAUGGAUCCACAUCUACGAAUUC…UUCACUGCAGACUUGACGAAGCUG
The essentials: (§1)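 Mutagenized RNA pools with a 21-nt variable region (0.43 μM) were reacted with each biotinyl-aminoacyl-oxazolone at 2–1250 μM for 90 minutes at room temperature, in 50 μL HEPES/NaCl/KCl/MgCl2/CaCl2 buffer containing 5% acetonitrile at pH 6.9–7.0. RNA captured on streptavidin was quantified by triplicate qPCR and by Illumina sequencing. The fraction reacted for each sequence was fit to a pseudo-first-order model with bootstrapping, and catalytic enhancement is the median kA divided by the uncatalyzed rate, taken as the low-activity peak of a bimodal Gaussian fit.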

The test system of the next data set is biotinyl-Trp-oxazolone. Description: self-aminoacylation, catalytic enhancement (BWO) (fold over background); higher = more active; k-Seq, kA / k0A0; sequences stand for … in GGGAAUGGAUCCACAUCUACGAAUUC…UUCACUGCAGACUUGACGAAGCUG
The essentials: as §1

Another data set has as its system biotinyl-Phe-oxazolone. Description: self-aminoacylation, catalytic enhancement (BFO) (fold over background); higher = more active; k-Seq, kA / k0A0; sequences stand for … in GGGAAUGGAUCCACAUCUACGAAUUC…UUCACUGCAGACUUGACGAAGCUG
The method, boiled down:
as §1

The next data set deals with biotinyl-Val-oxazolone. Description: self-aminoacylation, catalytic enhancement (BVO) (fold over background); higher = more active; k-Seq, kA / k0A0; sequences stand for … in GGGAAUGGAUCCACAUCUACGAAUUC…UUCACUGCAGACUUGACGAAGCUG
The essentials: as §1

For the next data set, the system named is biotinyl-Met-oxazolone. Description: self-aminoacylation, catalytic enhancement (BMO) (fold over background); higher = more active; k-Seq, kA / k0A0; sequences stand for … in GGGAAUGGAUCCACAUCUACGAAUUC…UUCACUGCAGACUUGACGAAGCUG
The method, boiled down: as §1

The subject of the next data set is biotinyl-Ile-oxazolone. Description: self-aminoacylation, catalytic enhancement (BIO) (fold over background); higher = more active; k-Seq, kA / k0A0; sequences stand for … in GGGAAUGGAUCCACAUCUACGAAUUC…UUCACUGCAGACUUGACGAAGCUG
The method, boiled down:
as §1

Variants at the floor of the assay were thinned out.

The text below walks through data of the supplement of paper PMC9233669.

As to “CCGCACUUCAAGCAAUCGGCC [Fam1B.1 aminoacylation ribozyme variant]”, the self-aminoacylation was found to be 1.61 with biotinyl-Leu-oxazolone; 6.53 in the data set on biotinyl-Trp-oxazolone; 6.69 in the data set on biotinyl-Phe-oxazolone; 3.21 in the data set on biotinyl-Val-oxazolone; 1.71 with biotinyl-Met-oxazolone; 1.97 in the data set on biotinyl-Ile-oxazolone.
Turning to “CCGCACUUCAAGCAAUCGGUG [Fam1B.1 aminoacylation ribozyme variant]”, the self-aminoacylation worked out at 10.3 with biotinyl-Leu-oxazolone; 8.54 in the data set with biotinyl-Trp-oxazolone; 55.1 in the data set on biotinyl-Phe-oxazolone; 5.59 in the data set with biotinyl-Val-oxazolone; 7.36 with biotinyl-Met-oxazolone; 5.07 in the data set with biotinyl-Ile-oxazolone.
Regarding “CCGCACUUCAAGCAAUCGUUC [Fam1B.1 aminoacylation ribozyme variant]”, the self-aminoacylation in the data set on biotinyl-Leu-oxazolone turned out to be 0.688; with biotinyl-Trp-oxazolone it was 0.659; with biotinyl-Phe-oxazolone it was 1.26; in the data set on biotinyl-Val-oxazolone, 0.944; in the data set on biotinyl-Met-oxazolone, 0.742; in the data set with biotinyl-Ile-oxazolone it was 0.8.
Regarding “CCGCACUUCAAGUAAUCGGUC [Fam1B.1 aminoacylation ribozyme variant]”, the self-aminoacylation was 1.54 with biotinyl-Leu-oxazolone; 14.5 with biotinyl-Trp-oxazolone; 15.6 in the data set with biotinyl-Phe-oxazolone; 1.37 with biotinyl-Val-oxazolone; 1.4 in the data set with biotinyl-Met-oxazolone; 1.3 in the data set on biotinyl-Ile-oxazolone.
Consider “CCGCACUUCACGCAAUCGGUC [Fam1B.1 aminoacylation ribozyme variant]”, for which the self-aminoacylation in the data set on biotinyl-Leu-oxazolone turned out to be 2.34; with biotinyl-Trp-oxazolone, 1.85; with biotinyl-Phe-oxazolone, 1.66; in the data set on biotinyl-Val-oxazolone it was 2.1; with biotinyl-Met-oxazolone, 1.54; in the data set on biotinyl-Ile-oxazolone, 1.36.
For the sequence “CCGCACUUCCAGCAAUCGGUC [Fam1B.1 aminoacylation ribozyme variant]”, the self-aminoacylation in the data set with biotinyl-Leu-oxazolone was found to be 1.04; in the data set with biotinyl-Trp-oxazolone, 0.883; in the data set on biotinyl-Phe-oxazolone, 0.932; in the data set on biotinyl-Val-oxazolone it was 2.03; with biotinyl-Met-oxazolone it was 0.995; in the data set on biotinyl-Ile-oxazolone it was 1.35.
For the sequence “CCGCAUUUCAAGCAAUCGGUC [Fam1B.1 aminoacylation ribozyme variant]”, the self-aminoacylation in the data set with biotinyl-Leu-oxazolone worked out at 2.72; with biotinyl-Trp-oxazolone it was 14.3; with biotinyl-Phe-oxazolone it was 16.8; in the data set on biotinyl-Val-oxazolone it was 2.48; in the data set on biotinyl-Met-oxazolone it was 1.92; in the data set on biotinyl-Ile-oxazolone, 2.36.
With “CCUCACUUCAAGCAAUCGAUC [Fam1B.1 aminoacylation ribozyme variant]”, the self-aminoacylation was determined as 0.453 in the data set on biotinyl-Leu-oxazolone; 0.672 in the data set with biotinyl-Trp-oxazolone; 1.71 in the data set with biotinyl-Phe-oxazolone; 0.691 in the data set with biotinyl-Val-oxazolone; 0.482 in the data set with biotinyl-Met-oxazolone; 0.494 with biotinyl-Ile-oxazolone.
On to “CCUCACUUCAAGCAGUCGGUC [Fam1B.1 aminoacylation ribozyme variant]”, for which the self-aminoacylation in the data set on biotinyl-Leu-oxazolone was 0.892; in the data set with biotinyl-Trp-oxazolone it was 0.928; with biotinyl-Phe-oxazolone, 1.1; in the data set on biotinyl-Val-oxazolone, 0.855; in the data set on biotinyl-Met-oxazolone, 0.646; in the data set on biotinyl-Ile-oxazolone it was 0.786.
In the case of “CCUCACUUGAAGCAAUCGGUC [Fam1B.1 aminoacylation ribozyme variant]”, the self-aminoacylation with biotinyl-Leu-oxazolone came to 0.607; in the data set on biotinyl-Trp-oxazolone, 0.664; in the data set with biotinyl-Phe-oxazolone, 0.809; with biotinyl-Val-oxazolone it was 0.678; with biotinyl-Met-oxazolone, 0.679; with biotinyl-Ile-oxazolone it was 0.636.
With “CGAAACUUCAAGCAAUCGGUC [Fam1B.1 aminoacylation ribozyme variant]”, the self-aminoacylation in the data set on biotinyl-Leu-oxazolone is 0.993; in the data set with biotinyl-Trp-oxazolone, 5.43; in the data set on biotinyl-Phe-oxazolone it was 7.94; in the data set with biotinyl-Val-oxazolone, 1.18; in the data set with biotinyl-Met-oxazolone, 0.901; with biotinyl-Ile-oxazolone, 1.17.
Turning to “CGACACCUCAAGCAAUCGGUC [Fam1B.1 aminoacylation ribozyme variant]”, the self-aminoacylation with biotinyl-Leu-oxazolone is 0.749; in the data set on biotinyl-Trp-oxazolone it was 1.17; with biotinyl-Phe-oxazolone it was 1.16; in the data set on biotinyl-Val-oxazolone, 1.06; with biotinyl-Met-oxazolone, 1.03; with biotinyl-Ile-oxazolone, 0.973.
Regarding “CGACACUUAAAGCAAUCGGUC [Fam1B.1 aminoacylation ribozyme variant]”, the self-aminoacylation in the data set with biotinyl-Leu-oxazolone was 0.849; in the data set with biotinyl-Trp-oxazolone, 0.792; with biotinyl-Phe-oxazolone, 1.13; with biotinyl-Val-oxazolone, 0.95; in the data set with biotinyl-Met-oxazolone it was 0.956; in the data set with biotinyl-Ile-oxazolone it was 0.886.
Consider “CGACACUUCAAACAAUCGGUC [Fam1B.1 aminoacylation ribozyme variant]”, for which the self-aminoacylation with biotinyl-Leu-oxazolone worked out at 1.71; in the data set with biotinyl-Trp-oxazolone it was 12.5; in the data set with biotinyl-Phe-oxazolone, 22.9; in the data set on biotinyl-Val-oxazolone, 1.64; in the data set with biotinyl-Met-oxazolone, 1.31; in the data set with biotinyl-Ile-oxazolone it was 1.23.
Turning to “CGACACUUCAAGAAAUCGGUC [Fam1B.1 aminoacylation ribozyme variant]”, the self-aminoacylation in the data set with biotinyl-Leu-oxazolone worked out at 1.24; in the data set with biotinyl-Trp-oxazolone, 2.88; in the data set on biotinyl-Phe-oxazolone, 3.41; in the data set with biotinyl-Val-oxazolone, 1.26; in the data set with biotinyl-Met-oxazolone it was 1.25; in the data set with biotinyl-Ile-oxazolone, 1.62.
Consider “CGACACUUCAAGCAAUCGAUC [Fam1B.1 aminoacylation ribozyme variant]”, for which the self-aminoacylation in the data set on biotinyl-Leu-oxazolone turned out to be 0.611; with biotinyl-Trp-oxazolone, 0.715; with biotinyl-Phe-oxazolone, 0.965; in the data set on biotinyl-Val-oxazolone, 0.727; with biotinyl-Met-oxazolone, 0.582; in the data set on biotinyl-Ile-oxazolone, 0.672.
“CGACACUUCAAGCAAUCGGAC [Fam1B.1 aminoacylation ribozyme variant]”: the self-aminoacylation was 1.57 with biotinyl-Leu-oxazolone; 1.31 with biotinyl-Trp-oxazolone; 1.21 in the data set with biotinyl-Phe-oxazolone; 1.31 in the data set with biotinyl-Val-oxazolone; 1.74 with biotinyl-Met-oxazolone; 1.67 in the data set with biotinyl-Ile-oxazolone.
Regarding “CGACACUUCAAGCAAUCGUUC [Fam1B.1 aminoacylation ribozyme variant]”, the self-aminoacylation in the data set on biotinyl-Leu-oxazolone is 0.669; with biotinyl-Trp-oxazolone, 0.465; with biotinyl-Phe-oxazolone, 1; with biotinyl-Val-oxazolone, 0.946; in the data set on biotinyl-Met-oxazolone, 0.629; with biotinyl-Ile-oxazolone it was 0.778.
On to “CGACACUUCAAGCAAUCUGUC [Fam1B.1 aminoacylation ribozyme variant]”, for which the self-aminoacylation in the data set on biotinyl-Leu-oxazolone turned out to be 0.411; in the data set on biotinyl-Trp-oxazolone, 0.416; in the data set on biotinyl-Phe-oxazolone it was 0.656; in the data set with biotinyl-Val-oxazolone, 0.51; in the data set on biotinyl-Met-oxazolone it was 0.52; in the data set on biotinyl-Ile-oxazolone, 0.554.
With “CGACUUCAAACAAUCGGGCUG [Fam1A.1 aminoacylation ribozyme variant]”, the self-aminoacylation in the data set with biotinyl-Leu-oxazolone is 2.34; in the data set on biotinyl-Trp-oxazolone, 12.7; in the data set on biotinyl-Phe-oxazolone, 10.4; with biotinyl-Val-oxazolone, 2.73; in the data set with biotinyl-Met-oxazolone, 2.05; in the data set on biotinyl-Ile-oxazolone it was 2.45.
Regarding “CGACUUCAAACAAUCUGUCUG [Fam1A.1 aminoacylation ribozyme variant]”, the self-aminoacylation is 0.664 in the data set with biotinyl-Leu-oxazolone; 1.84 in the data set with biotinyl-Trp-oxazolone; 3.02 in the data set with biotinyl-Phe-oxazolone; 0.86 in the data set with biotinyl-Val-oxazolone; 0.815 in the data set on biotinyl-Met-oxazolone; 0.926 in the data set with biotinyl-Ile-oxazolone.
As to “CGACUUCAAACAAUGGGUCUG [Fam1A.1 aminoacylation ribozyme variant]”, the self-aminoacylation was found to be 0.941 with biotinyl-Leu-oxazolone; 0.968 in the data set on biotinyl-Trp-oxazolone; 0.777 with biotinyl-Phe-oxazolone; 1.09 with biotinyl-Val-oxazolone; 1.2 in the data set on biotinyl-Met-oxazolone; 1.2 in the data set with biotinyl-Ile-oxazolone.
For the sequence “CGACUUCAAACAUUCGGUCUG [Fam1A.1 aminoacylation ribozyme variant]”, the self-aminoacylation was 1.43 with biotinyl-Leu-oxazolone; 2.1 in the data set with biotinyl-Trp-oxazolone; 8.04 with biotinyl-Phe-oxazolone; 1.96 in the data set with biotinyl-Val-oxazolone; 1.49 in the data set with biotinyl-Met-oxazolone; 1.81 in the data set on biotinyl-Ile-oxazolone.
